{
  "source": "paper PMC6921269",
  "key": {"[1]": {"system": "CCCCCCCCCCCCCCCC(=O)CC(=O)SCCNC(C)=O", "assay": "purified protein", "conditions": "co-substrate C5 diketide-NAC, 37 °C, 20 min"}, "[2]": {"system": "CCCCCCCCCCCCCCCCCC(=O)CC(=O)SCCNC(C)=O", "assay": "purified protein", "conditions": "co-substrate C5 diketide-NAC, 37 °C, 20 min"}},
  "data": [
    {"substance": "CsyB (Aspergillus oryzae RIB40; I375F)", "values": [
      {"measurement": "Km", "setting": "[1]", "value": "5.4 ± 1.8", "unit": "mM"},
      {"measurement": "kcat", "setting": "[1]", "value": "0.713 ± 0.075", "unit": "s⁻¹"},
      {"measurement": "kcat/Km", "setting": "[1]", "value": 132, "unit": "M⁻¹ s⁻¹"},
      {"measurement": "Km", "setting": "[2]", "value": "6.5 ± 2.1", "unit": "mM"},
      {"measurement": "kcat", "setting": "[2]", "value": "0.882 ± 0.14", "unit": "s⁻¹"},
      {"measurement": "kcat/Km", "setting": "[2]", "value": 136, "unit": "M⁻¹ s⁻¹"}
    ]}
  ]
}
